According to paper PMC8152469:

Target: MobK-6His (Klebsiella pneumoniae (plasmid pIGRK))
Test: cross-linking; about 400 ng MobK-6His incubated with increasing glutaraldehyde (0%, 0.001%, 0.0025%, 0.005%, 0.025%, 0.05%); SDS-PAGE and Western blot with anti-6His antibody; monomer to dimer

Q: MobK-6His (enzyme) was tested. Which stoichiometry N did it give?
A: Its stoichiometry N is 2.
